Experiment [1] deals with T1, human CD177 (human, UniProt Q8N6Q3 22-408).
T1 construct: whole, on cells; On circulating human neutrophils of donors and patients; also called CD177 (on human neutrophils)
T1 sequence (looked up): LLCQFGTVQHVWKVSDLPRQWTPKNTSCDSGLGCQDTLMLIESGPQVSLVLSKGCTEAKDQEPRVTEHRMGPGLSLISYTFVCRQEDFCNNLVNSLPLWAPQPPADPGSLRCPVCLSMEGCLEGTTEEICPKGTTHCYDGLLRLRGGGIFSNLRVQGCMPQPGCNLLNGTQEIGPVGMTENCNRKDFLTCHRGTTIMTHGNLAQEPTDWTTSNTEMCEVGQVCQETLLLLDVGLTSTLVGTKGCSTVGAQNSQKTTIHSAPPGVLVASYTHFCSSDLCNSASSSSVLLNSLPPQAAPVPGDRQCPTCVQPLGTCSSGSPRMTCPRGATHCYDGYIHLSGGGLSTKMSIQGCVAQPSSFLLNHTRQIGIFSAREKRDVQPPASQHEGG
The experiment in a line: flow cytometry on WBCs of healthy volunteers, anti-M13-PE (FIG. 13I). As for the experimental part: In order to assess the binding efficiency of each peptide to human circulating neutrophils, and the level of variability between individuals, the individual binding of each peptide to 5-8 healthy volunteers was assessed. Blood withdrawn from healthy volunteers was overlaid on 3% dextran in 0.9% NaCl in a 1:1 ratio and left at RT for 25 min to allow erythrocyte sedimentation. Residual RBCs were lysed by adding water for 30 sec and stopped by adding PBS×5 supplemented with 2.5% BSA. Following red blood cell lysis, 0.5×10⁶ WBCs were incubated with each phage separately. The level of binding of the different phages to the neutrophils was then assessed by flow cytometry. Neutrophils were identified based on a CD66b⁺ SSC^high gating, and the level of phage binding was assessed using PE-conjugated anti-M13 antibody for specific phage staining.
For orientation: Flow cytometry measures light scatter and fluorescence of single cells or particles in a stream.

The target in experiment [2] is T2, murine CD177 (mouse, UniProt Q8R2S8 22-817).
T2 construct: whole, on cells; On murine neutrophils (HDN, TAN, circulating), on HEK293T cells ectopically expressing it, and from neutrophil lysate in the pull-down; also called mouse CD177; CD177 (on murine neutrophils)
T2 sequence (looked up): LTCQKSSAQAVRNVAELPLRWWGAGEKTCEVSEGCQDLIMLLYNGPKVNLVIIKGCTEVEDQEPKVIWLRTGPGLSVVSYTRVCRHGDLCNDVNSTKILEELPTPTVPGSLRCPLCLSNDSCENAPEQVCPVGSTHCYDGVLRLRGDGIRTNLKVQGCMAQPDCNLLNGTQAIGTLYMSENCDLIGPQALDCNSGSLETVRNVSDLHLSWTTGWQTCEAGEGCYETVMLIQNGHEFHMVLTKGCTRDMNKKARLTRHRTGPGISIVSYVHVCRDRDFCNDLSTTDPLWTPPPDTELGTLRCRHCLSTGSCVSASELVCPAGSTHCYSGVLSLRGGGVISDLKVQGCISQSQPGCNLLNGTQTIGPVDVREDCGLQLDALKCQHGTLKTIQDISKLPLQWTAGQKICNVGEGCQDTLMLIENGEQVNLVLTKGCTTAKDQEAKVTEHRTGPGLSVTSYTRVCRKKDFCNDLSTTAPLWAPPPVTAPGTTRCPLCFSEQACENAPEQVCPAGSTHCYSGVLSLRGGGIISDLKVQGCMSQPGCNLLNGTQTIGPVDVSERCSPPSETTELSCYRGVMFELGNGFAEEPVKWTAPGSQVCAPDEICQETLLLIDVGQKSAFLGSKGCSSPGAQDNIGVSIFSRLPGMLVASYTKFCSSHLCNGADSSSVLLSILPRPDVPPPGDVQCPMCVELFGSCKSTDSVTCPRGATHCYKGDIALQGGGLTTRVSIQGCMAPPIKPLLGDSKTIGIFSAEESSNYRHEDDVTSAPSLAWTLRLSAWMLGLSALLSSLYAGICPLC
The experiment in a line: pull-down from murine neutrophil lysate with biotinylated LQI-tetramer on streptavidin-agarose beads, mass spectrometry.
Protocol: After washing, the bound proteins were eluted by incubating the beads for 10 min at 95° C. in protein sample buffer containing beta-mercaptoethanol. The gel was stained using silver staining. Lanes of the eluates of peptide- and control-beads were cut out and analyzed by mass spectrometry.

Experiment [3] deals with T1, human CD177. In words: negative control on WBCs of a lung cancer patient, flow cytometry.
In experiment [4] the target is T2, murine CD177. In words: titration on purified murine HDNs, flow cytometry; target named as neutrophils.
Experiment [5] concerns the target T2, murine CD177. The experiment in a line: flow cytometry on WBC of 4T1 tumor bearing mice, anti-M13-PE; target named as neutrophils.

The term Kd denotes the concentration at which binding is half-saturated. A low value points to higher affinity.

Square brackets hold non-standard residues; d marks the D form. Ends that are not written are not given here. AEEA = NCCOCCOCC(=O)O

B1: phage presenting peptide 4 (PSS) (other)
chain: PSSNLESTPLSLL
notes: not shown: phage coat protein pVIII flanking the inserted peptide
Consider B1, for which the “percent of circulating neutrophils bound, average of donors” value (shortened to “percent of circulating neutrophils bound”) with human CD177 [1] was around 60%.

B2: LQI tetramer peptide, (LQIQSWSSSP-Doa-Doa-C)4-(Mpa)4-Lys2-Lys-beta-Ala-Lys(Biotin)-beta-Ala-OH (peptide)
peptide: LQIQSWSSSP[AEEA][AEEA]C
modifications: also: tetramer: four chains joined via Cys-Mpa to branched Lys core
notes: Branched tetramer, MW 7.6 kDa; Detected with SA-Cy3 after washing ('tetramer alone' assay); also called tetrameric LQI; biotinylated LQI-tetramer
B2: in the experiment with murine CD177 [2], the peptide/control ratio is 7.89. In the experiment with human CD177 [3], the binding result is reported as “no binding”. In the experiment with murine CD177 [4], this molecule gave a Kd of 3.3 µM.

B3: phage presenting peptide PEL (other)
chain: PELDSKPYFPPL
notes: as for B1
On to B3, for which the “percent of circulating neutrophils bound” value with human CD177 [1] is around 60%.

B4: phage presenting peptide SLE (other)
chain: SLESSPMAQLPQ
notes: as for B1
As for B4, in the experiment with human CD177 [1], the “percent of circulating neutrophils bound” value was around 60%.

B5: phage presenting peptide SEL (other)
chain: SELRSTPLLVPS
notes: as for B1
As to B5, in the experiment with human CD177 [1], the “percent of circulating neutrophils bound” value was around 60%.

B6: phage presenting peptide 1.1 (KFP) (other)
chain: KFPDLDSRRLPHMSL
notes: detected with PE-conjugated anti-M13 antibody; not shown: phage coat protein pVIII flanking the inserted peptide
B6: in the experiment with human CD177 [1], the “percent of circulating neutrophils bound” value was around 60%.

B7: phage presenting peptide 14 (SSL) (peptide, not shown: large carriers)
chain: SSLMTTQLIATSI
The molecule B7 displayed a percent of circulating neutrophils bound, average of donors in the experiment with human CD177 [1] of 60%.

B8: phage presenting peptide ELV (other)
chain: ELVTASMPRPNN
notes: as for B1
For B8, the “percent of circulating neutrophils bound” value with human CD177 [1] was around 60%.

B9: phage presenting peptide 27 (LAT) (other)
chain: LATTHMVFSPDH
notes: as for B1
For the molecule B9, the “percent of circulating neutrophils bound” value with human CD177 [1] was around 60%.

B10: phage presenting the … (SEQ ID NO: 9) peptide on coat protein VIII (peptide, part only; not given: phage coat protein VIII, part only)
chain, part: LQIQSWSSSP
On to B10, for which the percent of neutrophils bound in the experiment with murine CD177 [5] came to 95%.

Source of the values: patent publication US20230203203A1 (YISSUM RESEARCH DEVELOPMENT COMPANY OF THE HEBREW …, published 2023).
